Changes are numbered by the printed parent chain. In names and notes the source's numbering stands. Values belong to the binder of their own block, whether it stands above or below them.
What was measured:
human ANGPTL3 [1] = target: T1, human ANGPTL3 (human, UniProt Q9Y5C1 17-460); assay: ELISA; Ab captured by anti-human Fc; biotinylated antigen at 0.412 nM
T1 construct: Biotinylated in the ELISA assays; also called hANGPTL3; free ANGPTL3
T1 sequence: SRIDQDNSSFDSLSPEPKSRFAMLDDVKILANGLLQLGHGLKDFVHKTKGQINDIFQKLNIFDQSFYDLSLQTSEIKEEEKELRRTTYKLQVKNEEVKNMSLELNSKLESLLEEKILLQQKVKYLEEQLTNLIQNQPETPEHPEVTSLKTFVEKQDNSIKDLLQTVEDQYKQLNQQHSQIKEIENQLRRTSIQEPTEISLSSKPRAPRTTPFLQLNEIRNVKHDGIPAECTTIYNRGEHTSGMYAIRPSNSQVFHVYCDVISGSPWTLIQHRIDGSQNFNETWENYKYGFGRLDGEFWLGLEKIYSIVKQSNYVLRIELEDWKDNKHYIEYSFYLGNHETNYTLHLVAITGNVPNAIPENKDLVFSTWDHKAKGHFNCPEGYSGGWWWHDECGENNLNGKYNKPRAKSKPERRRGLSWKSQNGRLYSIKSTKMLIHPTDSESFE
Method: (§1) ELISA Assay: Ab binding selectivity to either the ANGPTL3/8 complex, free ANGPTL3 or free ANGPTL8 is verified using standard ELISA assays. […] Ab from CHO supernatants after expression in CHO cells is then captured to the assay plate and results is an Ab concentration of 2 μg/ml. Biotinylated antigen (ANGPTL3, ANGPTL8 or ANGPTL3/8 complex) is added at varying concentrations by serial dilution to allow for Ab/antigen binding. Ab/antigen complexes are detected after the addition of alkaline phosphatase-conjugated neutravidin, and alkaline phosphatase substrate, and subsequent measurement of the optical density at 560 nm.

human ANGPTL3/8 complex [2] = target: T2, human ANGPTL3/8 complex (human, UniProt Q9Y5C1 17-460; Q6UXH0 22-198, limits assumed); assay: as above
T2 construct: also called hANGPTL3/8 complex; ANGTPL3/8 complex
T2 sequence 1: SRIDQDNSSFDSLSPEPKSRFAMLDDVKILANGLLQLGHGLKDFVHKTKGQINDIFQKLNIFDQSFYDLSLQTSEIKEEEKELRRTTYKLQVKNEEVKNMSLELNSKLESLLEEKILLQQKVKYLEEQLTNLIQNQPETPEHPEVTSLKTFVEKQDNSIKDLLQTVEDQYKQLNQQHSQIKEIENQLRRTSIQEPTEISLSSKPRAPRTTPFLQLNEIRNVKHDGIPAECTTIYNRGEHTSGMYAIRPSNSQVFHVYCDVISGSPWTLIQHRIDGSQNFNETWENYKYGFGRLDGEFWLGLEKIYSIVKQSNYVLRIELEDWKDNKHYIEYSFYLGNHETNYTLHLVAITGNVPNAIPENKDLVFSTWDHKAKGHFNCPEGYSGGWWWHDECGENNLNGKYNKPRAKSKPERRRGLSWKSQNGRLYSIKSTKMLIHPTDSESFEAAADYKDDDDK
T2 sequence 2: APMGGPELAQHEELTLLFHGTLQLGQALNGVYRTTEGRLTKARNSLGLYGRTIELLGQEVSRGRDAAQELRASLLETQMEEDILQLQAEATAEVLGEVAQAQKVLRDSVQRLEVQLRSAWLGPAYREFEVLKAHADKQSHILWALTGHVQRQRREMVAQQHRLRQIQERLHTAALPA
Method: as §1

human ANGPTL3 [3] = target: T1, human ANGPTL3; assay: ELISA; Ab captured by anti-human Fc; biotinylated antigen at 11.1 nM
Method: as §1

human ANGPTL3/8 complex [4] = target: T2, human ANGPTL3/8 complex; assay: as above
Method: as §1

human ANGPTL8 [5] = target: T3, human ANGPTL8 (human, UniProt Q6UXH0 22-198); assay: as above
T3 construct: Biotinylated in the ELISA assays; also called hANGPTL8; free ANGPTL8
T3 sequence: T2 sequence 2
Method: as §1

human ANGPTL3 [6] = target: T1, human ANGPTL3; assay: ELISA; Ab captured by anti-human Fc; biotinylated antigen at 3.70 nM
Method: as §1

human ANGPTL3/8 complex [7] = target: T2, human ANGPTL3/8 complex; assay: as above
Method: as §1

human ANGPTL8 [8] = target: T3, human ANGPTL8; assay: as above
Method: as §1

mouse ANGPTL3/8 complex = target: T4, mouse ANGPTL3/8 complex (mouse, UniProt Q9R182 17-455; Q8R1L8 16-198, limits assumed); assay: cell-based or functional assay
T4 sequence (looked up) 1: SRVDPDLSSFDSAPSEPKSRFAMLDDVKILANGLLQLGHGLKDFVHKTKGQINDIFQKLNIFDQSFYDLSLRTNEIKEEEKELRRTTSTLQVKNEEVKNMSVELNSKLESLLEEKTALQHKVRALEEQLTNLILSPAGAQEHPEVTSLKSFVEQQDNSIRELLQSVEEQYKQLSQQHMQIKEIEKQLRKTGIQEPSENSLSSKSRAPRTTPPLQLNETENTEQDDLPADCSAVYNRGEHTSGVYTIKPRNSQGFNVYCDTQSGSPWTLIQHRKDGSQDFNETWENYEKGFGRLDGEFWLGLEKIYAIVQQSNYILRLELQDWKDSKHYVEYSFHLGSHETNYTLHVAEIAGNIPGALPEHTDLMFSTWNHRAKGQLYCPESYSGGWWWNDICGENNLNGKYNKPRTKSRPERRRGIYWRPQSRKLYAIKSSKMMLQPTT
T4 sequence (looked up) 2: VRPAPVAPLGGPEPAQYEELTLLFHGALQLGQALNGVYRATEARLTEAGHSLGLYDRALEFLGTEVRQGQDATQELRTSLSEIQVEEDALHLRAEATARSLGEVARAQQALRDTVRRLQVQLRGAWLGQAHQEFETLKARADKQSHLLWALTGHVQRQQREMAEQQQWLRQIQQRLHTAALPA

human ANGPTL3/8 complex [9] = target: T2, human ANGPTL3/8 complex; assay: cell-based or functional assay

OD at 560 nm (human ANGPTL3 [1]): 0.043 OD 560 nm
OD at 560 nm (human ANGPTL3/8 complex [2]): 0.231 OD 560 nm
OD at 560 nm (human ANGPTL3 [3]): 0.046 OD 560 nm
OD at 560 nm (human ANGPTL3/8 complex [4]): 1.71 OD 560 nm
OD at 560 nm (human ANGPTL8 [5]): 0.045 OD 560 nm
OD at 560 nm (human ANGPTL3 [6]): 0.046 OD 560 nm
OD at 560 nm (human ANGPTL3/8 complex [7]): 1.04 OD 560 nm
OD at 560 nm (human ANGPTL8 [8]): 0.051 OD 560 nm
B1: anti-ANGPTL3/8 complex Ab having a LC of SEQ ID NO:5 and a HC of SEQ ID NO:6 (antibody, human IgG4 S228P, kappa, F234A L235A, V domains shown)
VH: QVTLKESGPTLVKPTQTLTLTCTFSGFSLSISGVGVGWIRQPPGKALEWLALIYRNDDKRYSPSLKSRLTITKDTSKNQVVLTLTNMDPVDTATYYCARTYSSGWYGNWFDPWGQGTLVTVSS
VL: DIVMTQTPLSLPVTPGEPASISCRSSQSLLDSDDGNTYLDWYLQKPGQSPQLLIYMLSYRASGVPDRFSGSGSGTDFTLKISRVEAEDVGIYYCMQRIEFPLTFGGGTKVEIKR
notes: In the ELISA assays tested as IgG from CHO supernatants; also called the Ab

OD at 560 nm (human ANGPTL3 [1]): 0.058 OD 560 nm
OD at 560 nm (human ANGPTL3/8 complex [2]): 0.234 OD 560 nm
% Max Derepression LPL (mouse ANGPTL3/8 complex): 110%
Ab EC50 (nM), derepression of LPL (mouse ANGPTL3/8 complex): 1.65 nM
% Max Derepression LPL (human ANGPTL3/8 complex [9]): 106%
Ab EC50 (nM), derepression of LPL (human ANGPTL3/8 complex [9]): 0.49 nM
OD at 560 nm (human ANGPTL3 [3]): 0.062 OD 560 nm
OD at 560 nm (human ANGPTL3/8 complex [4]): 1.74 OD 560 nm
OD at 560 nm (human ANGPTL8 [5]): 0.062 OD 560 nm
OD at 560 nm (human ANGPTL3 [6]): 0.06 OD 560 nm
OD at 560 nm (human ANGPTL3/8 complex [7]): 1.13 OD 560 nm
OD at 560 nm (human ANGPTL8 [8]): 0.056 OD 560 nm
B2: Ab with LC variant having a E99Q mutation (SEQ ID NO:25) and a HC of SEQ ID NO:6 (antibody, human IgG4 S228P, kappa, F234A L235A, V domains shown)
VH: B1 VH
VL: B1 VL with E99Q
notes: also called E99Q Variant Ab; E99Q Ab

OD at 560 nm (human ANGPTL3 [1]): 0.058 OD 560 nm
OD at 560 nm (human ANGPTL3/8 complex [2]): 0.234 OD 560 nm
% Max Derepression LPL (mouse ANGPTL3/8 complex): 110%
Ab EC50 (nM), derepression of LPL (mouse ANGPTL3/8 complex): 1.79 nM
% Max Derepression LPL (human ANGPTL3/8 complex [9]): 106%
Ab EC50 (nM), derepression of LPL (human ANGPTL3/8 complex [9]): 0.86 nM
OD at 560 nm (human ANGPTL3 [3]): 0.062 OD 560 nm
OD at 560 nm (human ANGPTL3/8 complex [4]): 1.74 OD 560 nm
OD at 560 nm (human ANGPTL8 [5]): 0.062 OD 560 nm
OD at 560 nm (human ANGPTL3 [6]): 0.06 OD 560 nm
OD at 560 nm (human ANGPTL3/8 complex [7]): 1.13 OD 560 nm
OD at 560 nm (human ANGPTL8 [8]): 0.056 OD 560 nm
B3: Ab with LC variant having a D31S mutation (SEQ ID NO:21) and a HC of SEQ ID NO:6 (antibody, human IgG4 S228P, kappa, F234A L235A, V domains shown)
VH: B1 VH
VL: B1 VL with D31S
notes: also called D31S Variant Ab; D31S Ab

OD at 560 nm (human ANGPTL3 [1]): 0.056 OD 560 nm
OD at 560 nm (human ANGPTL3/8 complex [2]): 0.196 OD 560 nm
% Max Derepression LPL (mouse ANGPTL3/8 complex): 106%
Ab EC50 (nM), derepression of LPL (mouse ANGPTL3/8 complex): 4.07 nM
% Max Derepression LPL (human ANGPTL3/8 complex [9]): 103%
Ab EC50 (nM), derepression of LPL (human ANGPTL3/8 complex [9]): 1.14 nM
OD at 560 nm (human ANGPTL3 [3]): 0.06 OD 560 nm
OD at 560 nm (human ANGPTL3/8 complex [4]): 1.64 OD 560 nm
OD at 560 nm (human ANGPTL8 [5]): 0.048 OD 560 nm
OD at 560 nm (human ANGPTL3 [6]): 0.056 OD 560 nm
OD at 560 nm (human ANGPTL3/8 complex [7]): 1.04 OD 560 nm
OD at 560 nm (human ANGPTL8 [8]): 0.048 OD 560 nm
B4: Ab with LC variant having a D33A mutation (SEQ ID NO:22) and a HC of SEQ ID NO:6 (antibody, human IgG4 S228P, kappa, F234A L235A, V domains shown)
VH: B1 VH
VL: B1 VL with D33A
notes: also called D33A Variant Ab; D33A Ab
